The star is where a group is joined. P(O)(OPh)2 = diphenyl phosphonate replacing C-terminal COOH, O=P(Oc1ccccc1)(Oc1ccccc1)*; Boc = CC(C)(C)OC(=O)*

The source of these data is patent US6586222 (CHIRON, dated 2003).

The experiment addresses T1, purified, activated recombinant human PR-3 (from proPR-3 secreted by Sf9 insect cells, activated with DPPI) (human, UniProt P24158 28-256).
T1 sequence: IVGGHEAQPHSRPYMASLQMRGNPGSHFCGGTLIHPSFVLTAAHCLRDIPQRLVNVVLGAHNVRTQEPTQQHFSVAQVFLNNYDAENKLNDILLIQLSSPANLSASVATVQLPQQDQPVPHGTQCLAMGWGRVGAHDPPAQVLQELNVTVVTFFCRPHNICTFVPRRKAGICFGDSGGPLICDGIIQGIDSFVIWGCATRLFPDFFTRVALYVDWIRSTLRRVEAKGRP
The experiment can be described thus: cell-based or functional assay.

B1: Boc-Ala-Pro-Val-p(OPh)2 (peptide)
peptide: Boc-Ala-Pro-Val-{P(O)(OPh)2}
Consider B1, for which the “IC50 of residual enzyme activity (Boc-Ala-ONp substrate, 1 hour at 25° C.)” value is roughly 10 µM.

B2: Boc-Val-Pro-Val-p(OPh)2 (peptide)
peptide: Boc-Val-Pro-Val-{P(O)(OPh)2}
With B2, the “IC50 of residual enzyme activity (Boc-Ala-ONp substrate, 1 hour at 25° C.)” value was roughly 0.4 µM.
